Laboratory results as given in the RNAGym collection of RNA variant scans (doi:10.1073/pnas.2313332121).

B1: TPR t1 (parent)
chain: GACCAAUCUGCCCUCAGAGCUCGAGAACAUCUUCGGAUGCAGAGGAGGCAGGCUUCGGUGGCGCGAUAGCGCCAACGUCCUCAACCUCCAAUGCAUCCCACCACAUGAUGAUGCCUGAAGAGCCUUGGUUUUUUG

Variants of: B1
Assay: polymerase ribozyme fitness, log enrichment relative to wild type (log ratio); higher = more active; in vitro selection for triplet polymerase activity
Outline: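 Mutant libraries for each subunit of a heterodimeric triplet polymerase ribozyme were made by PCR and then transcribed. Each library underwent one round of in vitro selection in triplicate: annealing with a biotinylated primer, the partner subunit and triplets, frozen incubation at −7 °C, gel excision of extended constructs, streptavidin-bead capture and RT-PCR. Input and output libraries were Illumina-sequenced, and only genotypes with ≥10 input reads and ≥1 read per output were kept. Fitness is the logarithm, base 2, of genotype enrichment over wild-type enrichment, computed from inverse-variance-weighted replicate averages.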

Variant	polymerase ribozyme fitness (log ratio)
GACCAAUCUGCCCUCAGAGCUCGAGAACAUCUUCGGAUGCAGAGGAAGCAGGCUUCGGUGGCGCGAUAGCGCCAACGUCCUCAAUCUCCAAUGCAUCCCAUCACAUGAUGAUGCCUGAAGAGCCUUGGUUUUUUG [G47A C85U C101U]	-2.15
GACCAAUCUGCCCUCAGAGCUCGAGAACAUCUUCGGAUGCAGAGGUGGCAGGCUUCGGUGGCGCGAUAGCGCCAACGUCCUCAACCUCCAAUGCAUCCCACCACAUGAUGAUGCCUGAAGAUCCUUGGUUUUUUG [A46U G122U]	-0.865
GACCAAUCUGCCCUCAGAGCUCGAGAACAUCUUCGGAUGCAGAGGAAGCAGGCUUCGGUGGCGCGAUAGGGCCAACGUCCUCAACCUCCAAUGCAUCCCACCACAUGAUGAUGCCUGAAGAGCCUUGGUUUUUUG [G47A C70G]	-4.77
GACCAAUCUGCCCUCAGAGCUCGAGAACAUCUUCGGAUGCAGAGGAAGCAGGGUUCGGUGGCGCGAUAGCGCCAACGUCCUCAACCUCCAAUGCAUCCCAUCACAUGAUGAUGCCUGAAGAGCCUUGGUUAUUUG [G47A C53G C101U U131A]	-1.26
GACCAAUCUGCCCUCAGAGCUCGAGAACAUCUUCGGAUGCAGAGGUGGCAGGCUUCGGUGGCGCGAUAGCGCCAACGUCCUCAACCUCCAAUGCAUCCCACCACAUGAUGAAGCCUGAAGAGCCUUGGUUUUUUG [A46U U112A]	0.36
GACCAAUCUGCCCUCAGAGCUCGAGAACAUCUUCGGAUGCAGAGGAAGCAGGCUUCGGUGGGGCGAUAGCGUCAACGUCCUCAACCUCCAAUGCAUCCCACCACAUGAUGAUGCCUGAAGAGCCUUGGUUUUUUG [G47A C62G C72U]	-4.13
GACCAAUCUGCCCUCAGAGCUCGAGAACAUCUUCGGAUGCAGAGGAAGCAGGCUUCGGUGGCGCGAUAGCGGCAACGUCCUCAACCUCCAAUGCAUCCCACCACAUGAUGAUGCCUGAAGAGCCUUGGUUUUUUG [G47A C72G]	-0.62
GACCAAUCUGCCCUCAGAGCUCGAGAACAUCUUCGGAUGCAGAGGUGGCAGGCUUCGGUGGCGCGAUAGCGCCAACGUCCUCAACCUCCAAUGCAUCCCACCACAGGAUGAUGCCUGAAGAGCCUUGGUUUUUUG [A46U U106G]	-2.72
GACCAAUCUGCCCUCAGAGCUCGAGAACAUCUUCGGAUGCAGAGGAAGCUGGCUUCGGUGGCGCGAUAGCGCCAACGUCCUCAACCUCCACUGCAUCCCACCACAUGAUGAUGCCUGAAGAGCCUUGGUUUUUUG [G47A A50U A91C]	-4.79
GACCAAUCUGCCCUCAGAGCUCGAGAACAUCUUCGGAUGCAGAGGAAGCACGCUUCGGUGGCUCGAUAGCGCCAACGUCCUCAACCUCCAAUGCAUCCCACCACAUGAUGAUGCAUGAAUAGCCUUGGUUGUUUG [G47A G51C G63U C115A G120U U131G]	-4.36
GACCAAUCUGCCCUCAGAGCUCGAGAACAUCUUCGGAUGCAGAGGAAGCAGGCUUCGGUGGCGCGAUAGCGCCAACGUUCUCAACCUCCAAUGCAUCCCUCCACAUGAUGUUGCCUGAAAAGCCGUGGUUACUUG [G47A C79U A100U A111U G120A U125G U131A U132C]	-6.42
GACCAAUCUGCCCUCAGAGCUCGAGAACAUCUUCGGAUGCAGAGGUGGCAGGCUUCGGUGGCGCGAUAGCGCCAACAUCCUCAACCUCCAAUGCAUCCCACCACAUGAUGAUGCCUGAAGAGACUUGGAUUUUUG [A46U G77A C123A U129A]	-2.69
GACCAAUCUGCCCUCAGAGCUCGAGAACAUCUUCGGAUGCAGAGGAAGCAGGCUUCGGUGGCGCGAUAGCGCCAAAGUCCUCAACCUCCAAUGCAUCCCACCACAUGAUGAUGCUUGAAGAGCCUUGGUUUUUUG [G47A C76A C115U]	-3.07
GACCAAUCUGCCCUCAGAGCUCGAGAACAUCUUCGGAUGCAGAGGUGGCAGGCUUCGGUGGCGCGAUAGCGCCAACGUCCUCAACCUCCAAUGCAUCCCACCACAUUAUGAUGCCUGAAGAGCCUUGGUUUUUUG [A46U G107U]	-5.66
GACCAAUCUGCCCUCAGAGCUCGAGAACAUCUUCGGAUGCAGAGGAAGCAGGCUUCGGUGGCGCGAUAGCGCCAACGUCCUCAACCUUCAAUGCAUCCCACCACAUGAUGAUGCCUGAAGAGCCUUGGUUUUUUG [G47A C88U]	-0.911
GACCAAUCUGCCCUCAGAGCUCGAGAACAUCUUCGGAUGCAGAGGAAGCAGGCUUCGGUGGCGCGAUAGCGCCAACGUCCUCAACCUCCAAUGCAUCCCACCACAUGAUGAUGCUUGAAGAGCCUUGGUUUUUUG [G47A C115U]	-2.3
GACCAAUCUGCCCUCAGAGCUCGAGAACAUCUUCGGAUGCAGAGGAAGCAGGCUUCGGUGGCGCGAUAGCGCCAACGUCCUCAACCUCCAAUGCCUCCCACCACAUGAUGAUGCCUGAAGAGCCUUGGUUUUUUG [G47A A95C]	-1.79
GACCAAUCUGCCCUCAGAGCUCGAGAACAUCUUCGGAUGCAGAGGUGGCAGGCUUCGGUGACGCGUUAGCGCCAACGUCCUCAACCUCCAAUGCAUCCCACCACAUGAUGAUUCCUGAAGAGGCUUGGAUUUUUG [A46U G61A A66U G113U C123G U129A]	-5.08
GACCAAUCUGCCCUCAGAGCUCGAGAACAUCUUCGGAUGCAGAGGUGGCAGGCUUCAGUGGCGCGAUAGCGCCAACGUGCUCAACCUCCAAUGCAUCCCACCACAUGAUGAUGCCUGAAGAGCCUUGGUUUUUUG [A46U G57A C79G]	-2.59
GACCAAUCUGCCCUCAGAGCUCGAGAACAUCUUCGGAUGCAGAGGUGACAGGCUUCGGUGGCGCGAUAGCGCCAACGUCCUCAACCACCAAUGCAUCCCACCACAUGAUGAUGCCUGAAAAGCCUUGGCUUUUUG [A46U G48A U87A G120A U129C]	-0.344
GACCAAUCUGCCCUCAGAGCUCGAGAACAUCUUCGGAUGCAGAGGUGGCAGGCUCCGGUGGCGCGAUAGCGCCAACGUCCUCAACCUCCAAUGCCUCCCACCACAUGAUGAUGCCUGAAGAGCCUUGGUUUUUUG [A46U U55C A95C]	-2.5

Variant	polymerase ribozyme fitness (log ratio)
GACCAAUCUGCCCUCAGAGCUCGAGAACAUCUUCGGAUGCAGAGGAAGCAGGCUUCGAUGGUGCGAUAGCGCCAACGUCCUCAACCUCCAAUGCAUCCCAUCACAUGGUGAUGCCUGAAGAGCCUUGGUUUUUUG [G47A G58A C62U C101U A108G]	-2.41
GACCAAUCUGCCCUCAGAGCUCGAGAACAUCUUCGGAUGCAGAGGUGGCAGGCUUCGGUGUCGCGAUAGCGCCAACGUCCUCAACCUCCAAUGCAUCCCACCACAUGAUGAUGCCUGAAGAGCCUUGGUUUUUUG [A46U G61U]	-0.648
GACCAAUCUGCCCUCAGAGCUCGAGAACAUCUUCGGAUGCAGAGGAAGCAGGCUUCGGUGGCGCGAUAGCGCCAACGUCCUCAACCUCCAAUGCAUCCCACCACAUGAUGAUGCCUGAAGAGCGUUGGUUUUUUG [G47A C124G]	0.559
GACCAAUCUGCCCUCAGAGCUCGAGAACAUCUUCGGAUGCAGAGGUGGCAGGCUUCGGUGGCUCGAUAGCGCCAACGACCUCAACCUCCUAUGCAUCCCACCACAUGAUGAUGCCUGAAGAGCCUUGGUUUUUUG [A46U G63U U78A A90U]	-3.56
GACCAAUCUGCCCUCAGAGCUCGAGAACAUCUUCGGAUGCAGAGGUGGCAGGCUUCGGUAGCGCGAUAGCGCCAACGUCAUCAACCUCCAAUGCAUCCCACCACAUGAUGAUGCCUGAAGGGCCUUGGUUUUUUG [A46U G60A C80A A121G]	-1.19
GACCAAUCUGCCCUCAGAGCUCGAGAACAUCUUCGGAUGCAGAGGAAGCAGGCUUUGGUGGCGCGAUAGCGCCAACGUCCUCAACCUCCAAUGUAUCCCACCACAUGAUGAUGCCUGAAGAGCCUUGGUUUUUUG [G47A C56U C94U]	-1.1
GACCAAUCUGCCCUCAGAGCUCGAGAACAUCUUCGGAUGCAGAGGAAGCAGGCUUCGGUGGCGCGAUAGCGCCAACGUCCUCAAACUCCAAUGCAUCCCACCACAUGAUGAUGCCUGAAGAGCCUUGGUUUUUUG [G47A C85A]	-2.48
GACCAAUCUGCCCUCAGAGCUCGAGAACAUCUUCGGAUGCAGAGGAAGCAGGCUUCGGUGGCGCGAUACCGCCAACGUCCUCAACAUCCAAUGCAUUCCACCACAUGAUGAUGCUUGAAGAGCGCUGGUUUUUUG [G47A G69C C86A C97U C115U C124G U125C]	-5.52
GACCAAUCUGCCCUCAGAGCUCGAGAACAUCUUCGGAUGCAGAGGAAGCAGGCUUCGGUGGCGCGAUAGAGCCAACAUUCUCAACGUCCAAUGCAUCCCACCACAUGAUGAUGCCUGAAGAGCCUUGGUUUUUUG [G47A C70A G77A C79U C86G]	-5.44
GACCAAUCUGCCCUCAGAGCUCGAGAACAUCUUCGGAUGCAGAGGAAGCAGGCUUCGGUGUCGCGAUAGCGCCAACGUCCUCAACCUCCAAUGCAUCCCACCACAUGAUGAUGCCUGAAGAGCCUUGGUUUUUUG [G47A G61U]	-1.24
GACCAAUCUGCCCUCAGAGCUCGAGAACAUCUUCGGAUGCAGAGGAAGCAGGCUUCGGUGGCGCGAUAGCGCCAACGUCCUCAACCUCCAAUGCAUCCCACUACAUGAUGAUGCCUGAAGAGCCUUGGUUUUUUG [G47A C102U]	-2.85
GACCAAUCUGCCCUCAGAGCUCGAGAACAUCUUCGGAUGCAGAGGUGGCAGACUUCGGUGGCGCGAUAGCGCCAACGUCCUCAACCUCCAAUGCAUCCCACCACAUGACGAUGCCUGAAGAGCGUUGGUUUUUUG [A46U G52A U109C C124G]	-7.25
GACCAAUCUGCCCUCAGAGCUCGAGAACAUCUUCGGAUGCAGAGGAAGCAGGCUUAGGUGGCGCGAUAGCGCCAACGUCCUCAACCUCCAAUGCAUCCCACCACAUGAUGAUUACUGAAGGGCCUUGGUUUUUUG [G47A C56A G113U C114A A121G]	-2.45
GACCAAUCUGCCCUCAGAGCUCGAGAACAUCUUCGGAUGCAGAGGUGGCAGGCUUCUGUGGCGCGAUAGCGCCAACGUCCUCAACCUCCAAUGCAUCCCACCACAUGAUGAUGCCUGAAGAGCCUUGGUUUAUUG [A46U G57U U132A]	-0.968
GACCAAUCUGCCCUCAGAGCUCGAGAACAUCUUCGGAUGCAGAGGUGGCAGGCUUCGCUGGCGCGAUAGAGCCAACGUCCUCAACCUCCAAUGCAUCCCACCACAUGAUGAUGCCUGAAGAGCCUUGGUUUUUUG [A46U G58C C70A]	-2.22
GACCAAUCUGCCCUCAGAGCUCGAGAACAUCUUCGGAUGCAGAGGAAGUAGGCUUCGGUGGCGCGAUAGCGCCAACGUCCUCAACCUCCAAUGCAUCCCACCACAUGAUGAUGCCUGAAGAGCCUUGGUUUUUUG [G47A C49U]	-0.915
GACCAAUCUGCCCUCAGAGCUCGAGAACAUCUUCGGAUGCAGAGGAAACAGGCUUCGGUGGCGCGAUAGCGCCAACGUCCUCAACCUCCAAUGCAUCCCACCACAUGAUGAUGCCUGGAGAGCCUUGGUUUUUUG [G47A G48A A118G]	-2.29
GACCAAUCUGCCCUCAGAGCUCGAGAACAUCUUCGGAUGCAGAGGUGGCAGGCUUCGGUGGCGCGAUAGCGCCAACGUCCUCAACCUCCAAUACAUCCCACCACAUGAUGAUGCCUGAAAAACCUUGGUUUUUUG [A46U G93A G120A G122A]	-3.08
GACCAAUCUGCCCUCAGAGCUCGAGAACAUCUUCGGAUGCAGAGGAAGCAGGCUUCGGUGGCGCGAUAGCGCCAACGUCCUCACCCUCCAAUGCAUCCCACCACAUGAUGAUGCCUGAAGCGCCUUGGUUUUUUG [G47A A84C A121C]	0.928
GACCAAUCUGCCCUCAGAGCUCGAGAACAUCUUCGGAUGCAGAGGAAGCAGGCUUCGGUGGCGCGAUAGCGUCAACGACCUCAACCUACAAUGCAUCCCACCACAUGAUGAUGCCUGAUGAGCCUUGGUUUCUUG [G47A C72U U78A C88A A119U U132C]	-1.87
GACCAAUCUGCCCUCAGAGCUCGAGAACAUCUUCGGAUGCAGAGGUGGCAGGCUUCGGUGGCGCGAUAGCGCCAACGUCCUCAACCUCCAAUGCAUCCCACCACAUGAUGAUGCCUGAAGAGCCAUGGUUUUUUG [A46U U125A]	-1.67
